These are literature values, as cited in article PMC10954796, “Post-translational modifications of beta-amyloid alter its transport in the blood-brain barrier in vitro model” (Frontiers in Molecular Neuroscience, 2024).

In general, Kd refers to the concentration at which binding is half-saturated.

One data set addresses Aβ40 1-40 (Homo sapiens) (UniProt P05067).
Data set [1] has as its target Aβ42 oligomers 1-42 (Homo sapiens) (UniProt P05067). As to the kind of experiment: surface plasmon resonance. A general note: Surface plasmon resonance follows binding to a sensor surface in real time, without labels.

Where “and” joins values, the source holds several entries; their conditions need not be identical. Identical values can stand only once.

Sequence of Aβ40 1-40 (Homo sapiens) (P05067 1-40): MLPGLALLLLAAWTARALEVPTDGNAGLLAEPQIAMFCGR
Sequence of Aβ42 oligomers 1-42 (Homo sapiens) (P05067 1-42): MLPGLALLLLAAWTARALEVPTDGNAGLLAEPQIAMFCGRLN

RAGE (from UniProt Q15109): in the data set with Aβ40 1-40 (Homo sapiens), the Kd is 75 nM and 57 nM. In the case of sRAGE (from UniProt Q15109), the Kd in data set [1] is 17 nM.
